Measured values: patent US20100249372A1 (WISCONSIN ALUMNI RESEARCH FOUNDATION, published 2010)

How the values were obtained:
Botulinum neurotoxin B = biological target: T1, Botulinum neurotoxin B (Clostridium botulinum, UniProt P10844 2-1291); experiment: pull-down with immobilised GST-L4 (8 µg), western blot
T1 sequence: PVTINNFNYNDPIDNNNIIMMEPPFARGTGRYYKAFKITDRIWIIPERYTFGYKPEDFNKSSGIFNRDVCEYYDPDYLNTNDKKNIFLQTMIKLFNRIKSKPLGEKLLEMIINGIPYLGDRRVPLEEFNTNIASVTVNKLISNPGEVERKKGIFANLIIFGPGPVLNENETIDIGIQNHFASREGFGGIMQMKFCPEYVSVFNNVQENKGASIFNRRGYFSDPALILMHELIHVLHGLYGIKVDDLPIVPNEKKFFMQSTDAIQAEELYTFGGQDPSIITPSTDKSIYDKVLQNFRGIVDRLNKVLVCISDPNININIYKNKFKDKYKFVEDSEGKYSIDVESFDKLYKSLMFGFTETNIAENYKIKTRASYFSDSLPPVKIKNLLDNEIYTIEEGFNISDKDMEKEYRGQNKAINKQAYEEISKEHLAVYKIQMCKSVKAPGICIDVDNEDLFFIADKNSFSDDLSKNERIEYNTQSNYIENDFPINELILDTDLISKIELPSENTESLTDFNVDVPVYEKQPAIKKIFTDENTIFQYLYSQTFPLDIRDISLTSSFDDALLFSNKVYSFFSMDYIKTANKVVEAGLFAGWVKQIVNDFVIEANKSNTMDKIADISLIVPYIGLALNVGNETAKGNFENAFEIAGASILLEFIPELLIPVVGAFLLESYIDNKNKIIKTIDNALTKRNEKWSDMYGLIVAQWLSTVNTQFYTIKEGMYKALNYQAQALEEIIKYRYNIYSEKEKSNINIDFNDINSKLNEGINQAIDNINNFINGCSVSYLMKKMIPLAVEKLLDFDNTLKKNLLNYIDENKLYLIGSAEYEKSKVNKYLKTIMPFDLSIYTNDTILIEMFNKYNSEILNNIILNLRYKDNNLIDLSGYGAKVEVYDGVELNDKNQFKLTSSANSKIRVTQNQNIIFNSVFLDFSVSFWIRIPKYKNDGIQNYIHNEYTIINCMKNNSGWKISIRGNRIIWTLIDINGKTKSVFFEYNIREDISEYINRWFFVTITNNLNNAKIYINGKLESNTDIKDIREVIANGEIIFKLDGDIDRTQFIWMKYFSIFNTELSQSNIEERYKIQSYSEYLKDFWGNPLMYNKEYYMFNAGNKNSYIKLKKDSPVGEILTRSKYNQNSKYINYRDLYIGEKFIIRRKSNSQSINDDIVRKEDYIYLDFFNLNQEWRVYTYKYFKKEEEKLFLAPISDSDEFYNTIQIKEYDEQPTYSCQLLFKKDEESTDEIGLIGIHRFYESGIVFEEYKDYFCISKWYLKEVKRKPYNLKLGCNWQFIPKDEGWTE

Botulinum neurotoxin E = biological target: T2, Botulinum neurotoxin E (Clostridium botulinum, UniProt Q00496 2-1251); experiment: as above
T2 sequence: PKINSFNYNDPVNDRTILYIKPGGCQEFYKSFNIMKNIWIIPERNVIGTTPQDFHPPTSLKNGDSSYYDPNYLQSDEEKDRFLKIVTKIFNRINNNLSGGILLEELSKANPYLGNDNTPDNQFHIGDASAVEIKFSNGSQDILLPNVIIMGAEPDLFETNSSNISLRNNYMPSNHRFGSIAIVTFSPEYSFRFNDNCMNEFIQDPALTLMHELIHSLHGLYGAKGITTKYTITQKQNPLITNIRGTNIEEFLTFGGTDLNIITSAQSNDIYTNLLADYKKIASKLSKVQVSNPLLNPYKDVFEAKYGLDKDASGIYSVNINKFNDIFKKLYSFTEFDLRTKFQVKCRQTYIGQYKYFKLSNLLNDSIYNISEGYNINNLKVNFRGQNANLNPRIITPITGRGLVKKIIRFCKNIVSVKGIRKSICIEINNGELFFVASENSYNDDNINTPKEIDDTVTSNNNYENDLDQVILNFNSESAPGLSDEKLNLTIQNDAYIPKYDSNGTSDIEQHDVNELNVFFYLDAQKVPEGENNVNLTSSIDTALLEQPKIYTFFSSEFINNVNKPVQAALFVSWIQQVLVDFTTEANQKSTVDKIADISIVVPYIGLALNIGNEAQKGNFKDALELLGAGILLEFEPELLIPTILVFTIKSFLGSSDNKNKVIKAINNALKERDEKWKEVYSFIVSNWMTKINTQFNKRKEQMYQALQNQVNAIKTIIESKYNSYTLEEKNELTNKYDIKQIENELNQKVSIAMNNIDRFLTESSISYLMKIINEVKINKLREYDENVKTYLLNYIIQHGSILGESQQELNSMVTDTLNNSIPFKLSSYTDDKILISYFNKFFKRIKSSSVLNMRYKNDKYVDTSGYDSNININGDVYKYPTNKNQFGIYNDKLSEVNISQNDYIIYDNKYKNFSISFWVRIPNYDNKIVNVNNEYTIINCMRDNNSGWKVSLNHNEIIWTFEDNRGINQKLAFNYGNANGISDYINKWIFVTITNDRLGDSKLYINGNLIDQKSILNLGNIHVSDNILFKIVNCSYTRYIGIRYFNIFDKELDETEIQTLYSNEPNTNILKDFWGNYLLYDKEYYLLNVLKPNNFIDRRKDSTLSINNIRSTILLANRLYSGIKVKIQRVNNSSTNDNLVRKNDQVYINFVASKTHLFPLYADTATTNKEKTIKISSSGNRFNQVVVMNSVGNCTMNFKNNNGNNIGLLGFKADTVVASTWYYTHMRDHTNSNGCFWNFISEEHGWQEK

Botulinum neurotoxin A = Botulinum neurotoxin A (Clostridium botulinum, UniProt P0DPI1 2-1296); experiment: immunostaining of transfected SV2A/B double knockout hippocampal neurons

B1: GST-tagged 4th luminal domain (L4) of rat SV2B (other)
chain: FPDMIRYFQDEEYKSKMKVFFGEHVHGATINFTMENQIHQHGKLVNDKFIKMYFKHVLFEDTFFDKCYFEDVTSTDTYFKNCTIESTTFYNTDLYKHKFIDCRFINSTFLEQKEGCHMDFEEDNDF
**Q.** Does B1 bind (Botulinum neurotoxin B)?
**A.** no binding (tested: 100 nM)

**Q.** Does B1 bind (Botulinum neurotoxin E)?
**A.** no binding (tested: 100 nM)

B2: synaptotagmin I (other)
chain: MVSASHPEALAAPVTTVATLVPHNATEPASPGEGKEDAFSKLKQKFMNELHKIPLPPWALIAIAIVAVLLVVTCCFCVCKKCLFKKKNKKKGKEKGGKNAINMKDVKDLGKTMKDQALKDDDAETGLTDGEEKEEPKEEEKLGKLQYSLDYDFQNNQLLVGIIQAAELPALDMGGTSDPYVKVFLLPDKKKKFETKVHRKTLNPVFNEQFTFKVPYSELGGKTLVMAVYDFDRFSKHDIIGEFKVPMNTVDFGHVTEEWRDLQSAEKEEQEKLGDICFSLRYVPTAGKLTVVILEAKNLKKMDVGGLSDPYVKIHLMQNGKRLKKKKTTIKKNTLNPYYNESFSFEVPFEQIQKVQVVVTVLDYDKIGKNDAIGKVFVGYNSTGAELRHWSDMLANPRRPIAQWHTLQVEEEVDAMLAVKK
**Q.** Does B2 bind (Botulinum neurotoxin A)?
**A.** no binding (tested: 10 nM)

B3: GST-tagged 4th luminal domain (L4) of rat SV2C (other)
chain: FPDVIKHLQSDEYALLTRNVQKDKYANFSINFTMENQVHTGMEYDNGRFLGVKFKSVTFKDSVFKSCTFDDVTSVNTYFKNCTFIDTLFENTDFEPYKFIDSEFQNCSFLHNKTGCQITFDDDYSAY
**Q.** What does the source list for B3?
**A.** binding result (Botulinum neurotoxin B): no binding (tested: 100 nM); binding result (Botulinum neurotoxin E): no binding (tested: 100 nM)

B4: GST-tagged 4th luminal domain (L4) of rat SV2A (other)
chain: FPDMIRHLQAVDYAARTKVFPGERVEHVTFNFTLENQIHRGGQYFNDKFIGLRLKSVSFEDSLFEECYFEDVTSSNTFFRNCTFINTVFYNTDLFEYKFVNSRLVNSTFLHNKEGCPLDVTGTGEGAY
**Q.** What does the source list for B4?
**A.** binding result (Botulinum neurotoxin B): no binding (tested: 100 nM); binding result (Botulinum neurotoxin E): no binding (tested: 100 nM)
